Common to all, as to experiment: ELISA, antigen coated at 2 µg/mL
The target in assay [1] is CoV-2 RBD (W436R) (SARS-CoV-2) (UniProt P0DTC2).
The target of assay [2] is CoV-2 S (R683A, R685A) (SARS-CoV-2) (UniProt P0DTC2).
For assay [3], the target named is CoV-2 RBD (V367F) (SARS-CoV-2) (UniProt P0DTC2).
For assay [4], the target named is CoV-2 S (D614G) (SARS-CoV-2) (UniProt P0DTC2).
In assay [5] the target is CoV-2 RBD (N354D, D364Y) (SARS-CoV-2) (UniProt P0DTC2).
Assay [6] deals with CoV-2 RBD (N354D) (SARS-CoV-2) (UniProt P0DTC2).

Take IVIG (Gamunex): the EC50 in assay [1] came to 1240 µg/mL; in assay [2] it was 2840 µg/mL; in assay [3], 1130 µg/mL; in assay [4] it was 1330 µg/mL; in assay [5], 1320 µg/mL; in assay [6] it was 1240 µg/mL.
SARS CoV-2 mAb [SAD-S35] (antibody): the EC50 in assay [1] came to 0.04 µg/mL; in assay [2] it was 0.05 µg/mL; in assay [3] it was 0.04 µg/mL; in assay [4] it was 0.03 µg/mL; in assay [5], 0.05 µg/mL; in assay [6] it was 0.04 µg/mL.

For the origin of these results see patent publication US20230265171A1.
